Data published in patent US20050100965A1 (published 2005).
“And” between values parts separate entries of the source, which are not always exact repeats. Identical values can stand only once.

How the values were obtained:
NEM-huIL-18 = NEM-huIL-18 (human, UniProt Q14116 37-193, cysteines treated with N-ethyl maleiamide (NEM)); experiment: cell-based or functional assay
[1] = target: T1, Biotinylated rhuIL-18 (biot-IL-18) (human, UniProt Q14116 37-193, NEM-treated cysteines; biotin on lysine residues (mixture with 1, 2, 3 or 4 biotins per huIL-18)); experiment: biotinylated IL-18 ELISA, hybridoma or B cell supernatant
T1 construct: also called biotinylated NEM-huIL-18; biotinylated IL-18
Source text: An ELISA was developed to screen for antibodies that bind human IL-18. […] Hybridoma or B cell supernatants were applied and IL-18-bound antibodies were detected using HRP-conjugated anti-human IgGs, following standard ELISA protocols well known in the art.

Binder	KG-1 Assays (IC50, M) (NEM-huIL-18)	binding result [1]
HuMAb 268 (antibody, V domains shown) VH: ZVQLVESGGGVVQPGRSLRLSCAASGFTFRNYGLHWVRQAPGKGLEWVAVIWYDGSNKYYADSVKGRFTISRDNSKNTLYLQMNSLRAEDTAVYYCARESYYYYGMDVWGQGTTVTVSS VL: EIVMTQSPATLSVSPGERATLSCRASQSFNSNLVWYQQKPGQAPRLLIYGASTRATGIPARFSGSGSGTEFTLTISSLQSEDFAVYYCQQYNNWTWTFGQGTKVEIKR	7e-09 M	
HuMAb 2.13.1 (antibody, V domains shown) VH: ZVQLQESGPGLVTPSQTLSLTCTVSGGSISSGGHYWTWIRQHPGKGLEWIGYIYYSGSTYYNPSLKSRLTISVDTSKNQFSLKLSSVAAADTAVYYCARDRGGSGSYWDYWGQGTLVTVSS VL: EIVLTQSPGTLSLSPGERATLSCRGSRSVSSGYLAWYQQKPGQAPRLLIYGVSIRATGIPDRFSGSGSGTDFTLTISRLEPEDFAVYYCQQYHGSPLTFGGGTKVEIKR	2e-10 M and 1e-10 M and 7e-11 M	
HuMAb 550 (antibody, V domains shown, KG-1 IC50 printed as TBD) VH: ZVQLQESGPGLVKPSQTLSLTCTVSGGSINSGGYYWSWIRQHPGKGLEWIGHISYRGTTYSNPSLKSRVTISVDTSKNQFSLKLSSVTAADTAVYYCARDRGGGFFDLWGRGTLVTVSS VL: EIVLTQSPGTLSLSPGERATLSCRASQSVNSGYLAWYQQKPGQAPRLLIYGVSIRATDIPDRFSGSGSATDFTLTISRLEPEDFAVYYCQQYGFSPLTFGGGTRVEINR		binds
HuMAb 215 (antibody, V domains shown) VH: ZVQLQESGPGLVKPSQTLSLTCTVSGGSINSGDYYWSWIRQHPGKGLEWIGHISYRGTTYYNPSLKSRVTISVDTSKNQFSLKLSSVTAADTAVYCCARDRGGGFFDLWGRGTLVTVSS VL: EIVLTQSPGTLSLSPGERATLSCRASRSLSSGYLAWYQQKPGQAPRLLIYGASIRATGIPDRFSGSGSATDFTLTISRLEPEDFAVYYCQQYNYSPLTFGGGTRVEINR	1e-10 M and 3e-10 M	
HuMAb 2.5.1 (antibody, V domains shown) VH: ZVQLVQSGTEVKKPGESLKISCKGSGYTVTSYWIGWVRQMPGKGLEWMGFIYPGDSETRYSPTFQGQVTISADKSFNTAFLQWSSLKASDTAMYYCARVGSGWYPYTFDIWGQGTMVTVSS VL: not shown	3e-10 M and 4e-10 M	
HuMAb 351 (antibody, V domains shown) VH: ZVQLVESGGGVVQPGRSLRLSCAASGFTFSHYGMHWVRQAPGKGLEWVAVISYDGRNKYYVDSVKGRFTISRDNSKNTLYLQMNSLRAEDTAVFYCAREKGGSGWPPFYYYYGMDVWGQGTTVTVSS VL: DIVMTQTPLSLSVTPGQPASISCKSSQNLLYSDGETYLCWYLQKPGQPPQLLIYEVSNRFSGVPERFSGSGSGTDFTLKISRVEAEDVGIYYCMQNVQLPLTFGGGTRVEIKR	2e-10 M	
HuMAb 435 (antibody, V domains shown) VH: ZLQLQESGPGLVKPSETLSLTCTVSGGSIDSRIYYWGWIRQPPGKGLEWIGSIYYRGSTYYNPSLKSRVTISVDTPKNQFSLKLNSVTAADTAVYYCAREDSSAWVFDYWGQGTLATVSS VL: EIVLTQSPGTLSLSPGERATLSCRASQSVRNNYLNWYQQKPGQAPRLLIYGAFSRATGIPDRFSGSGSGTDFTLTISSLEPEDFVVYYCQQYGNSIDSFGQGTKLEINR	8e-10 M and 7e-10 M and 4e-10 M	
HuMAb 413 (antibody, V domains shown) VH: ZTQLQESGPGLVKPSETLSLTCTVSGGSISSRVYYWGWIRQPPGKGLEWIGSIYYSGSTYYSPSLKSRVTISVDTSKNQFSLKLSSVTAADTAIYYCAREDSSAWVFEHWGQGTLVTVSS VL: EIVLTQSPDTLSLSPGERATLSCRASQILSRNYLAWYQQKPGQAPRLLIYGISIRATGIPDRFSGSGSGADFTLTINRLEPEDFAVYYCQHYDNSLCSFGQGTKLEVKR	1e-09 M and 7e-10 M	
